Assays:
[1] = LC-MS assay of GH3 conjugation of IAA with Asp or Glu; assay type: biochemical; conditions: for kcat (hrs−1) IAA-Asp: conjugation of IAA with Asp by recombinant GH3 protein, IAA-Asp product by LC-MS; for kcat (hrs−1) IAA-Glu: conjugation of IAA with Glu by recombinant GH3 protein, IAA-Glu product by LC-MS
Summary of the method: (§1)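 N-terminal His-tagged GH3 homologs, expressed in E. coli C41(DE3) and Ni-NTA purified, at 44 to 164 μg/mL incubated 3 h at 30 °C in 20 mM Tris-HCl pH 8.0, 5 mM MgCl2, 1 mM DTT, 5 mM ATP, 5 mM auxin (IAA, 2,4-D or dicamba) and 5 mM Asp or Glu. Conjugates quantified by LC-MS against standards after MeOH precipitation; kinetics from Michaelis-Menten fits of initial velocities.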

[2] = LC-MS assay of GH3 conjugation of 2,4-D with Asp or Glu; assay type: biochemical; conditions: 5 mM 2,4-D substrate; for kcat (hrs−1) 2,4-D-Asp: conjugation of 2,4-D with Asp by recombinant GH3 protein, 2,4-D-Asp product by LC-MS; for kcat (hrs−1) 2,4-D-Glu: conjugation of 2,4-D with Glu by recombinant GH3 protein, 2,4-D-Glu product by LC-MS
Summary of the method: as §1

Molecule	kcat (hrs−1) IAA-Asp [1] [h⁻¹]	kcat (hrs−1) IAA-Glu [1] [h⁻¹]	kcat (hrs−1) 2,4-D-Asp [2] [h⁻¹]	kcat (hrs−1) 2,4-D-Glu [2] [h⁻¹]
PtGH3-2: GH3 protein, accession EEE87842 (protein, listed as Populus trichocarpa) MAVDNALSSPLGPPACEKDAKALQFLEEMTRNADSVQEDVLAKILTQNSEVEYLKRFNLDGAIDRETFKSKIPMIRYEDLQPEIQRIANGDRSSILSAHPISEFLTSSGTSAGERKLMPTIKQELDRRQLLYSLLMPVMNLYVPGLDKGKGLYFLFVKSETRTPGGLLARPVLTSYYKSDHFKTRPYDPYNVYTSPNEAILCADSFQSMYTQMLCGLLEREQVLRVGAVFASGLLRAIRFLQLHWRELSDDIESGMLNKKITDPTVKDCMVNILKPNPKLAEFVRMECGKENWEGIITRIWPNTKYLDVIVTGAMAQYIPTLDYYSGGLPKACTMYASSECYFGLNLNPMCKPSEVCYTIMPNMAYFEFLPHEPAGISQDSTPKLVDLADVELGKEYELVITTYAGLYRYRVGDILRVTGFHNSAPQFHFVRRKNVLLSIDSDKTDEAELQTAVENASQLLREFNTSVVEYTSHADTKTIPGHYVIYWELLVKDSANSPGDEVLNQCCLAMEESLNSVYRQGRVADNSIGPLEIRVVKNGTFEELMDYAISRGASINQYKVPRCVNFTPIMELLDSRVVSKHFSPALPRWAPERRR	679.646	53.401	0.934	0.203
PtGH3-8: GH3 protein, accession EEE78719 (protein, listed as Populus trichocarpa) MLPIFDPNDNEAGLKLLEDLTNNACQIQRQVLEYILTTNLHTGYLKSFLNGDSSKENFKNKVPIVNYEDIKPCIERIANGEPSSIISAQPITELLTSSGTSGGQPKMMPSTAEELERKTFFYNLLMPIMNKYVDGLDQGKGMYLLFTKPEISTPSGLMARPVLTSYYKSSNFRNRAFNRYNVYTSPDETILCPDSKQSMYCQLLCGLVQREEVLRVGAVFASAFLRAIKFLEEYQKELCSNIRTGRLSDWITDPNCRNAVSSFLSKPNSELADLIEVECSGKSCEGIIKKLWPRTKYIEVIVTGSMAQYIPTLEFYSGGLPLVSTMYGSSECYLGINFKPLSNPSDVSYTLIPNMAYFEFLPVDKDNKKVIQAEKDVEAVDLEDVKLGHYYELVVTTFTGLYRYRVGDILMVTGFYNNAPQFRFVHRRNVVLSIDTDKTNEEDLLKAVTQAKVLLEPLGFLLTEYTSFADTSSIPGHYVLFWELKTQGTNDLPELDPITMEKCCSTVEESLDSIYRRCRKKDKSIGPLEIRVVTHGTFDALMDFCVSQGSSVNQYKTTRCIKSEEAFKILHSRVVGRFFSKKTPFWE	13.999	568.780	0.000	0.559
NtGH3: GH3 protein, accession AAD32141 (protein, listed as Nicotiana tabacum) MAVDSVLSSPLGPPACEKDAKALQFIEEMTRNADAVQERVLNEILTRNSQTEYLKRFKLDGVSDRETFKNKIPVVTYEDLQPEIQRIANGDRSPILSAHPISEFLTSSGTSAGERKLMPTIKEELDRRQLLYSLLMPVMNLYVPGLDKGKGLYFLFIKSETKTPGGLLARPVLTSYYKSEHFKRRPHDPYNVYTSPNEAILCADSFQSMYTQMLCGLYEREQVLRLGAVFASGLVRAIRFLQLHWPQLAHDIRTGTLNPEITDPSICERMGLVMRPNPKLADFVTDECSKENWEGIITRIWPKTKYLDVIVTGAMAQYIPTLDYYSGGLPKACTMYAASECYFGLNLNPMCKPSEVSYTIMPNMGYFEFLPHDPNSSRDSTRNLVDLVDVEVGKEYELVITTYAGLYRYRVGDILRVTGFHNSAPQFHFVRRKNVLLSIDSDKTDEAELQRAVENASKLLKEFNTSVVEYTSYADTKTIPGHYVIYWELLMKDLNNSPSDEVLNKCCLAMEESLNTVYRQGRVACNSIGPLEIRVVKNGTFEELMDYAISRGASINQYKVPRCVSFAPILELLDSRVMSRHFSPSLPQWTPERRH	716.658	34.341	1.990	0.804
PtGH3-4: GH3 protein, accession EEE95321 (protein, listed as Populus trichocarpa) MPEEAPMKNLVCEKSRKALQFIEDVTRNADEVQRKVLAEILSRNANVEYLQRYGLNGNKADREAFKKVMPVVSYEDLKPDIDRIANGDTSQIICSQPISEFLTSSGTSAGERKLMPTIEEELGRRSLLYSLLMPVMNQFVPGLDRGKGMYFLFIKSETKTPGGLLARPVLTSYYKSSYFRDRPYDPYTNYTSPNETILCQDSYQSMYSQLLCGLYQNYDVLRVGAVFASGFIRAIKFLEKHWILLCNDIRNGTIDPKISDPSVREAVLKILKPNQKLADFIEAECTRESWKGIITRLWPNTKYIDVIVTGTMSQYIPTLDYYCDGLPLVCTMYASSECYFGLNLNPLSKPSEVSYTLIPTMAYFEFLPVNRKNGLINSITAPTSLDQKKDQELVDLVDVKLGEEYELVVTTYAGLYRYRVGDILRVAGFKNKAPQFNFVCRKNVVLSIDSDKTDEVELQNAVQNAANHLLPFGASLTEYTSYADTSKIPGHYVLFWEICLSGTTPIPPSVFEDCCLAIEESLNSVYRQGRVSDKSIGPLEIRITERGAFDKLMDFALSQGASINQYKAPRCVKYAPIIELLNSRVVSNYISPKCPKWVPGHKQWCTPN	660.985	93.781	0.740	0.536
PtGH3-1: GH3 protein, accession EEE70316 (protein, listed as Populus trichocarpa) MAIESVLSPLGPPACEKDAKALQFIEDMTANVDLVQERVLKEILTSNAETEYLQKYHLNGATDRDSFKSKIPMVTYEDLQPQIQRIANGDKSPILSSHPISEFLTSSGTSAGERKLMPTIEEEMDRRQLLYSLLMPVMNLYVPGLDKGKGLYFYFIKAEAKTPGGLVARPVLTSYYKSKQFKTRPYDPYNVITSPNETILCVDSFQSMYSQMLCGLIMREEVLRVGAVFASGLLRAIRFLQLNWKELANDISTGSLNPKVTNPSIRECMAKILKPNQELAEFITKECSDENWERIITRIWPNTKYLDVIVTGAMAQYIPTLDYYSGGLPKPCTMYASSECFFGLNLRPMSEPSEVSYTIMPNMGYFEFLPHDPSAPAFSRESPPRLLDLADLEVGKEYELVITTYSGLNRYRVGDILLVTGFYNKAPQFRFVRRKNVLLSIESDKTDEAELQKAIDNASLLLREFNTSVVEYTSYAETKIIPGHYVIYWELLVKDPANSPTEEVLNQCCLAMEESLNSVYRQSRVADNSIGPLEIRVVKNGTFEELMDYAISRGASINQYKVPRCVSFTPIMELLDSRVVSKHFSPSVPHWTPERRS	900.907	39.695	4.798	0.181
PiGH3-16: GH3 protein, accession CAJ14972 (protein, Pinus pinaster) MPQAKREEGIESVQESIIIATTERNRKALDFIEHATIHAAEVQAEVLLEILTRNAYTEYLERYQLTGRTDRKSFKERLPVITYEDLQPEILRIANGDMSPILSAHPISEFLTSSGTSAGERKIMPTIHEELKRRTLLYSLLMPVMNQYMKGLDKGKGMYFLFVKSETRTPGGLLARPVLTSYYKSQDFIERPYDPYNVYTSPMEAILCSDSYQSMYCQLLCGLAQNHEVLRVGAVFASGLLRAIRFLEEHWQSLCQDIRSGTVNDEEVTDPCLRESVMKILHPNTQLADLIRTECSKESWQGIITRLWPNARYLDVIVTGAMAQYIKTLDFYSGGLPQVCTMYASSECYFGINLKPLCQPWEVSYTLMPNMAFFEFLPVYRNKNEDAGPVTTATEQPAELVDLVDVKVGQEYELVITTYSGLYRYRVGDVLRVTGFHNAAPQFQFVCRKNVMLSIDADKTDEAELHNAVMNAVKHLEPLEATLVEYTSYTDTSTIPGHYVLYWELRTSALPVPPSVFEDCCLTVEESLNSVYRQCRVADKSIGPLEIKVVEMGTFDKLMDYAISRGSSINQYKAARCVKFAPMVDILNSRVSASYFSPRCPKWTAGRTQWGALPR	656.761	51.037	0.379	0.089
PtGH3-3: GH3 protein, accession EEE85053 (protein, listed as Populus trichocarpa) MAVDNALSSPLGPPACEKDAKALQFIEEMTRKTDSVQEDVLAKILIQNAEVEYLKRFNLDGATDRETFKSKLPTIRYEDLQPEIQRIANGDRSSILSTHPISEFLTSSGTSAGERKLMPTIKQELDRRQLLYSLLMPVMNLYVPGLDKGKGLYFLFVKSETRTPGGLLARPVLTSYYKSDHFKTRPYDPYNVYTSPNEAILCADSFQSMYTQMLCGLLEREQVLRVGAVFASGLLRAIRFLQLHWRELADDIESGMLNKEITDPSVKDCMVKILKPNPKLAEFVRMECSKENWEGIITRIWPNTKYLDVIVTGAMAQYIPTLDYYSGGLPLACTMYASSECYFGLNLNPMCKPSEVCYTIMPNMAYFEFLPHDPNGFTHDSTPKLVDLADVELGKEYELVITTYAGLYRYQVGDILRVTGFHNSAPQFHFVRRKNVLLSIDSDKTDEAELQKAVENASQLLREFNTSVVEYTSYADTKTIPGHYVIYWELLVKDLANSPSDEVLNQCCLAMEECLNSVYRQGRVADYSIGPLEIRVVKNGTFEELMDYAISRGASINQYKVPRCVNFTPIMELLDSRVVSKHFSPALPYWTPERRR	806.314	44.225	2.033	0.845

Reference: US20150351390A1, “COMPOSITIONS AND METHODS FOR AUXIN-ANALOG CONJUGATION” (PIONEER HI-BRED INTERNATIONAL, INC., priority 2012, published 2015)
